According to the supplement of paper PMC9732359:
± gives the uncertainty stated by the source.

Experiment: protein stability index of a GFP-peptide fusion (yeast GPS) (PSI 1-4); higher = more stable; sorted into four equal gates, so the index is relative within each strain
Summary of the method: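 Tiled 17-residue yeast protein peptides were fused downstream of GFP in a plasmid that also expresses Cherry, and the pooled library was carried in yeast. Mid-log cultures in leucine-free medium were sorted into four equal gates by GFP/Cherry fluorescence ratio, and plasmids from each gate were PCR-amplified and Illumina-sequenced, with reads assigned to strains by barcodes. The protein stability index for each peptide was each gate's read frequency times its gate number, summed.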

**Q.** For LPELWALLNFVLPKIFN [SNF2], which protein stability index (doa10∆) is on record?
**A.** Its protein stability index is 2.38 ± 0.074.

**Q.** And the protein stability index (pdr5∆)?
**A.** Its protein stability index is 1.89 ± 0.062.

**Q.** And the protein stability index (san1∆)?
**A.** The protein stability index was 2.07 ± 0.098.

**Q.** And the protein stability index (ubr1∆)?
**A.** Its protein stability index is 1.51 ± 0.038.

**Q.** For PLINRLKHYNGYDINYI [SWI1], which protein stability index (doa10∆) is on record?
**A.** Its protein stability index is 2.41 ± 0.068.

**Q.** What about the protein stability index (pdr5∆) of the same sequence?
**A.** Its protein stability index is 2.57 ± 0.051.

**Q.** And the protein stability index (san1∆)?
**A.** The protein stability index was 2.76 ± 0.065.

**Q.** And the protein stability index (ubr1∆)?
**A.** The protein stability index was 2.69 ± 0.043.

**Q.** Which results are given for EKIMENKYPELLGKDNE [AAR2]?
**A.** protein stability index (doa10∆): 3.04 ± 0.073; protein stability index (pdr5∆): 3.24 ± 0.062; protein stability index (san1∆): 3.24 ± 0.039; protein stability index (ubr1∆): 2.96 ± 0.045

**Q.** Which protein stability index (doa10∆) does the source give for FLQSVDITGIRDVSDDV [GRR1] here?
**A.** The protein stability index was 1.74 ± 0.041.

**Q.** And the protein stability index (pdr5∆)?
**A.** Its protein stability index is 2.12 ± 0.045.

**Q.** And the protein stability index (san1∆)?
**A.** The protein stability index was 1.89 ± 0.055.

**Q.** And the protein stability index (ubr1∆)?
**A.** Its protein stability index is 1.69 ± 0.036.

**Q.** Which protein stability index (doa10∆) does the source give for LEGSVSLPRFSKPVLIV [DIS3] here?
**A.** Its protein stability index is 2.67 ± 0.072.

**Q.** What about the protein stability index (pdr5∆) of the same sequence?
**A.** The protein stability index was 2.57 ± 0.063.

**Q.** And the protein stability index (san1∆)?
**A.** Its protein stability index is 2.19 ± 0.06.

**Q.** What about the protein stability index (ubr1∆) of the same sequence?
**A.** The protein stability index was 3.02 ± 0.062.

**Q.** For YSSILGNSFNKSSNDTI [YCG1], which protein stability index (doa10∆) is on record?
**A.** The protein stability index was 2.5 ± 0.048.

**Q.** What about the protein stability index (pdr5∆) of the same sequence?
**A.** Its protein stability index is 2.77 ± 0.042.

**Q.** What about the protein stability index (san1∆) of the same sequence?
**A.** Its protein stability index is 2.62 ± 0.037.

**Q.** And the protein stability index (ubr1∆)?
**A.** The protein stability index was 2.81 ± 0.049.

**Q.** Which results are given for TGWITQSTPVLLNHGER [RPN1]?
**A.** protein stability index (doa10∆): 2.61 ± 0.061; protein stability index (pdr5∆): 2.23 ± 0.044; protein stability index (san1∆): 1.88 ± 0.056; protein stability index (ubr1∆): 2.53 ± 0.037

**Q.** Which protein stability index (doa10∆) does the source give for DVNIVNRRLVYSRILKS [YCG1] here?
**A.** Its protein stability index is 1.36 ± 0.1.

**Q.** What about the protein stability index (pdr5∆) of the same sequence?
**A.** Its protein stability index is 1.16 ± 0.079.

**Q.** What about the protein stability index (san1∆) of the same sequence?
**A.** The protein stability index was 1.38 ± 0.17.

**Q.** And the protein stability index (ubr1∆)?
**A.** The protein stability index was 1.21 ± 0.059.

**Q.** For QMPLNSNGGNNMLPQRQ [SNF2], which protein stability index (doa10∆) is on record?
**A.** Its protein stability index is 2.41 ± 0.047.

**Q.** What about the protein stability index (pdr5∆) of the same sequence?
**A.** Its protein stability index is 2.79 ± 0.053.

**Q.** What about the protein stability index (san1∆) of the same sequence?
**A.** Its protein stability index is 2.39 ± 0.064.

**Q.** What about the protein stability index (ubr1∆) of the same sequence?
**A.** The protein stability index was 2.54 ± 0.043.

**Q.** Which protein stability index (doa10∆) does the source give for GASINSMKANTSTNPNG [ARP7] here?
**A.** Its protein stability index is 2.72 ± 0.089.

**Q.** And the protein stability index (pdr5∆)?
**A.** The protein stability index was 3.19 ± 0.089.

**Q.** And the protein stability index (san1∆)?
**A.** Its protein stability index is 2.74 ± 0.067.

**Q.** And the protein stability index (ubr1∆)?
**A.** Its protein stability index is 2.93 ± 0.058.

**Q.** For SNMILGSVELSTGDYTF [YML103C/NUP188], which protein stability index (doa10∆) is on record?
**A.** Its protein stability index is 2.48 ± 0.055.

**Q.** What about the protein stability index (pdr5∆) of the same sequence?
**A.** The protein stability index was 2.35 ± 0.065.

**Q.** What about the protein stability index (san1∆) of the same sequence?
**A.** Its protein stability index is 2.16 ± 0.077.

**Q.** And the protein stability index (ubr1∆)?
**A.** Its protein stability index is 2.43 ± 0.037.

**Q.** For YVRKHDPLNSNIFSEAV [PRP28], which protein stability index (doa10∆) is on record?
**A.** The protein stability index was 2.9 ± 0.11.

**Q.** What about the protein stability index (pdr5∆) of the same sequence?
**A.** The protein stability index was 2.76 ± 0.089.

**Q.** What about the protein stability index (san1∆) of the same sequence?
**A.** The protein stability index was 2.9 ± 0.055.

**Q.** And the protein stability index (ubr1∆)?
**A.** The protein stability index was 3.1 ± 0.12.

**Q.** Which results are given for MTEDIEQKKTATEVTPQ [RPC19]?
**A.** protein stability index (doa10∆): 2.8 ± 0.12; protein stability index (pdr5∆): 3.2 ± 0.093; protein stability index (san1∆): 3.1 ± 0.098; protein stability index (ubr1∆): 3.28 ± 0.11

**Q.** With GLVCADTFRAGAFDQLK [SRP54] as the sequence, how does the protein stability index (doa10∆) read?
**A.** Its protein stability index is 3.14 ± 0.1.

**Q.** And the protein stability index (pdr5∆)?
**A.** The protein stability index was 3.54 ± 0.1.

**Q.** And the protein stability index (san1∆)?
**A.** The protein stability index was 3.34 ± 0.11.

**Q.** And the protein stability index (ubr1∆)?
**A.** Its protein stability index is 3.25 ± 0.084.

**Q.** For FLFQNINFERIDEVFSW [GRR1], which protein stability index (doa10∆) is on record?
**A.** The protein stability index was 2.36 ± 0.059.

**Q.** What about the protein stability index (pdr5∆) of the same sequence?
**A.** Its protein stability index is 2.36 ± 0.071.

**Q.** And the protein stability index (san1∆)?
**A.** The protein stability index was 2.47 ± 0.056.

**Q.** What about the protein stability index (ubr1∆) of the same sequence?
**A.** The protein stability index was 2.28 ± 0.048.

**Q.** With ILMQQQMMARMAQTATQ [SRP54] as the sequence, how does the protein stability index (doa10∆) read?
**A.** The protein stability index was 2.34 ± 0.14.

**Q.** What about the protein stability index (pdr5∆) of the same sequence?
**A.** Its protein stability index is 2.22 ± 0.1.

**Q.** And the protein stability index (san1∆)?
**A.** Its protein stability index is 2.08 ± 0.12.

**Q.** What about the protein stability index (ubr1∆) of the same sequence?
**A.** Its protein stability index is 2.63 ± 0.1.

**Q.** For QPYEDRPFEGLFVISTE [RRP45], which protein stability index (doa10∆) is on record?
**A.** Its protein stability index is 2.96 ± 0.052.

**Q.** What about the protein stability index (pdr5∆) of the same sequence?
**A.** The protein stability index was 3.12 ± 0.048.

**Q.** And the protein stability index (san1∆)?
**A.** Its protein stability index is 3.11 ± 0.048.

**Q.** What about the protein stability index (ubr1∆) of the same sequence?
**A.** The protein stability index was 3.05 ± 0.038.

**Q.** Which protein stability index (doa10∆) does the source give for PASDDILDNINHNGSAL [ITC1] here?
**A.** The protein stability index was 2.9 ± 0.1.

**Q.** What about the protein stability index (pdr5∆) of the same sequence?
**A.** Its protein stability index is 3.21 ± 0.096.

**Q.** And the protein stability index (san1∆)?
**A.** The protein stability index was 3.06 ± 0.095.

**Q.** What about the protein stability index (ubr1∆) of the same sequence?
**A.** The protein stability index was 3.29 ± 0.078.

**Q.** For KLVRESELLGGTFKSTL [QCR2], which protein stability index (doa10∆) is on record?
**A.** The protein stability index was 2.53 ± 0.12.

**Q.** What about the protein stability index (pdr5∆) of the same sequence?
**A.** The protein stability index was 2.82 ± 0.1.

**Q.** What about the protein stability index (san1∆) of the same sequence?
**A.** Its protein stability index is 2.35 ± 0.093.

**Q.** And the protein stability index (ubr1∆)?
**A.** The protein stability index was 3.18 ± 0.063.

**Q.** Which results are given for IVPDLIINPHAIPSRMT [RPB2]?
**A.** protein stability index (doa10∆): 1.81 ± 0.048; protein stability index (pdr5∆): 2 ± 0.042; protein stability index (san1∆): 1.75 ± 0.068; protein stability index (ubr1∆): 2.16 ± 0.047

**Q.** What does the source list for IIEQLSIAAERYDYSDE [YCG1]?
**A.** protein stability index (doa10∆): 2.51 ± 0.052; protein stability index (pdr5∆): 2.78 ± 0.063; protein stability index (san1∆): 2.22 ± 0.06; protein stability index (ubr1∆): 2.59 ± 0.032

**Q.** With EKWISSKNSKLSIICVG [SIR3] as the sequence, how does the protein stability index (doa10∆) read?
**A.** The protein stability index was 1.82 ± 0.091.

**Q.** What about the protein stability index (pdr5∆) of the same sequence?
**A.** The protein stability index was 1.52 ± 0.075.

**Q.** And the protein stability index (san1∆)?
**A.** The protein stability index was 1.37 ± 0.17.

**Q.** And the protein stability index (ubr1∆)?
**A.** The protein stability index was 1.23 ± 0.073.

**Q.** Which results are given for PMTVKLVQLPKSAMDTF [POP3]?
**A.** protein stability index (doa10∆): 2.15 ± 0.058; protein stability index (pdr5∆): 2.52 ± 0.062; protein stability index (san1∆): 2.81 ± 0.053; protein stability index (ubr1∆): 2.88 ± 0.053

**Q.** With LFLYKELVKAHLGERAA [RPC82] as the sequence, how does the protein stability index (doa10∆) read?
**A.** Its protein stability index is 2.72 ± 0.086.

**Q.** What about the protein stability index (pdr5∆) of the same sequence?
**A.** Its protein stability index is 2.96 ± 0.09.

**Q.** And the protein stability index (san1∆)?
**A.** The protein stability index was 2.88 ± 0.061.

**Q.** What about the protein stability index (ubr1∆) of the same sequence?
**A.** The protein stability index was 2.77 ± 0.11.

**Q.** Which results are given for EKELKIFTDAGRVYRPL [RPB2]?
**A.** protein stability index (doa10∆): 3.04 ± 0.067; protein stability index (pdr5∆): 3.44 ± 0.082; protein stability index (san1∆): 3.09 ± 0.063; protein stability index (ubr1∆): 3.34 ± 0.042

**Q.** Which protein stability index (doa10∆) does the source give for KKEEEEQLSEEDAKLKT [RPN1] here?
**A.** The protein stability index was 3.19 ± 0.16.

**Q.** What about the protein stability index (pdr5∆) of the same sequence?
**A.** The protein stability index was 3.24 ± 0.07.

**Q.** What about the protein stability index (san1∆) of the same sequence?
**A.** Its protein stability index is 3.34 ± 0.11.

**Q.** And the protein stability index (ubr1∆)?
**A.** The protein stability index was 3.06 ± 0.14.
